Experimental data as given in US20230357429A1 (JANUX THERAPEUTICS, published 2023).
Changes are numbered by the printed parent chain. In names and notes the source's numbering stands. Where two headings read alike, the source gives them in different places. Where no end group is shown, it is not given here.

T1: Peptide-49 (cysteine pairing not given here; also: biotinylated, site not given here)
T1 peptide: IDFCLLYKWPVCEL

T2: Peptide-60 (cysteine pairing not given here; also: biotinylated, site not given here)
T2 peptide: VDFCNLYHWPICAI

T3: Peptide-8 (cysteine pairing not given here; also: biotinylated, site not given here)
T3 peptide: VDFCGLYHWPICYQ

T4: Peptide-57 (cysteine pairing not given here; also: biotinylated, site not given here)
T4 peptide: IDFCYRYGWPVCQT

T5: Peptide-43 (cysteine pairing not given here; also: biotinylated, site not given here)
T5 peptide: VDFCALYHWPICYQ

T6: Peptide-54 (cysteine pairing not given here; also: biotinylated, site not given here)
T6 peptide: VDFCYRYSWPVCWA

T7: Peptide-53 (cysteine pairing not given here; also: biotinylated, site not given here)
T7 peptide: IDFCRVYDWPVCSL

T8: Peptide-61 (cysteine pairing not given here; also: biotinylated, site not given here)
T8 peptide: VDFCALYHWPVCGL

T9: Peptide-56 (cysteine pairing not given here; also: biotinylated, site not given here)
T9 peptide: VDFCYQYGWPICSRV

T10: Peptide-51 (cysteine pairing not given here; also: biotinylated, site not given here)
T10 peptide: VDFCGLYHWPICYQV

T11: Peptide-50 (cysteine pairing not given here; also: biotinylated, site not given here)
T11 peptide: VDFCAIYSWPICKI

T12: Peptide-59 (cysteine pairing not given here; also: biotinylated, site not given here)
T12 peptide: VDFCALYNWPVCAI

T13: Peptide-45 (cysteine pairing not given here; also: biotinylated, site not given here)
T13 peptide: VDFCYQYGWPICSRVD

T14: Peptide-47 (cysteine pairing not given here; also: biotinylated, site not given here)
T14 peptide: VDFCYQYGWPICSRLY

T15: Peptide-48 (cysteine pairing not given here; also: biotinylated, site not given here)
T15 peptide: VDFCYMYKWPVCYP

T16: Peptide-3 (cysteine pairing not given here; also: biotinylated, site not given here)
T16 peptide: IDFCMLYNWPICAG

T17: Peptide-55 (cysteine pairing not given here; also: biotinylated, site not given here)
T17 peptide: VDFCYKYNWPICSR

T18: Peptide-7 (cysteine pairing not given here; also: biotinylated, site not given here)
T18 peptide: EDFCKLYNWPICYQ

T19: Peptide-18 (cysteine pairing not given here; also: biotinylated (site not given here))
T19 peptide: MDFCQIYDWPICRL

T20: Peptide-27 (cysteine pairing not given here; also: biotinylated, site not given here)
T20 peptide: FSLVCVRNLYCWNV

T21: Peptide-12 (cysteine pairing not given here; also: biotinylated (site not given here))
T21 peptide: PDFCAVYRWPICYQ

T22: Peptide-2 (cysteine pairing not given here; also: biotinylated (site not given here))
T22 peptide: IDFCAVYKWPVCQV

T23: Peptide-20 (cysteine pairing not given here; also: biotinylated (site not given here))
T23 peptide: VDFCSFYRWPICET

T24: Peptide-1 (cysteine pairing not given here; also: biotinylated (site not given here))
T24 peptide: IDFCAMYQWPICDT

T25: Peptide-17 (cysteine pairing not given here; also: biotinylated (site not given here))
T25 peptide: IDFCLLYDWPICGR

T26: Peptide-26 (cysteine pairing not given here; also: biotinylated, site not given here)
T26 peptide: DNLICVKNLWCWIA

T27: Human TROP2 ECD (31-274 AA), biotinylated (human, UniProt P09758 31-274, biotinylated (site not stated))
T27 construct: captured on neutravidin plates; also called TROP2-biotin; Trop2-biotin
T27 sequence: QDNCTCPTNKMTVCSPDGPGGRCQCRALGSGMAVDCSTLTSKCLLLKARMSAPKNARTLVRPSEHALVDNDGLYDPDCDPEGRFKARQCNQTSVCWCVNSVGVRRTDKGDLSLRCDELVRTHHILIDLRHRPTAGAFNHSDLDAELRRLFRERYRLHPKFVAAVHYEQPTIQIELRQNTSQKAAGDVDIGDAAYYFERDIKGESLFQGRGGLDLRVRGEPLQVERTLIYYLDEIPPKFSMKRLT

T28: Peptide-28 (cysteine pairing not given here; also: biotinylated, site not given here)
T28 peptide: NYLLCVKNLYCWIV

B1: TBD-1 wt (Fab, V domains shown)
VH: QVQLQQSGSELKKPGASVKVSCKASGYTFTNYGMNWVKQAPGQGLKWMGWINTYTGEPTYTDDFKGRFAFSLDTSVSTAYLQISSLKADDTAVYFCARGGFGSSYWYFDVWGQGSLVTVSS
VL: DIQLTQSPSSLSASVGDRVSITCKASQDVSIAVAWYQQKPGKAPKLLIYSASYRYTGVPDRFSGSGSGTDFTLTISSLQPEDFAVYYCQQHYITPLTFGAGTKVEIKR
notes: Fab; the heavy chain entry is VH-CH1; also called wild-type anti-TROP2 Fab (hRS7); TROP2 Fab
B2: TBD-6 (LC I93A) (Fab, V domains shown)
VH: B1 VH
VL: B1 VL with I93A
notes: Fab; also called LC I93A mutant
B3: TBD-21 (HC F108A) (Fab, V domains shown)
VH: B1 VH with F108A
VL: B1 VL
notes: Fab; also called HC F108A mutant
B4: TBD-17 (HC S104A) (Fab, V domains shown)
VH: B1 VH with S104A
VL: B1 VL
notes: Fab; also called HC S104A mutant
B5: TBD-11 (HC R98A) (Fab, V domains shown)
VH: B1 VH with R98A
VL: B1 VL
notes: Fab; also called HC R98A mutant

Columns and labels:
Peptide-49 = target: T1, Peptide-49; experiment: ELISA, Fab on captured biotin-peptide
Procedure: (§1) Binding was measured in a standard ELISA format. […] Bound TBDs were detected using a standard horse radish peroxidase conjugate secondary antibody. The ELISA signal was plotted versus the log-scale concentration of TBD. The concentrations of TBD required to observe half maximal binding signal (EC₅₀s) were calculated using Graphpad Prism software.

Peptide-60 = target: T2, Peptide-60; experiment: ELISA, Fab on captured biotin-peptide
Procedure: as §1

Peptide-8 [1] = target: T3, Peptide-8; experiment: ELISA, Fab on captured biotin-peptide
Procedure: as §1

Peptide-57 = target: T4, Peptide-57; experiment: ELISA, Fab on captured biotin-peptide
Procedure: as §1

Peptide-43 = target: T5, Peptide-43; experiment: ELISA, Fab on captured biotin-peptide
Procedure: as §1

Peptide-54 = target: T6, Peptide-54; experiment: ELISA, Fab on captured biotin-peptide
Procedure: as §1

Peptide-53 = target: T7, Peptide-53; experiment: ELISA, Fab on captured biotin-peptide
Procedure: as §1

Peptide-61 = target: T8, Peptide-61; experiment: ELISA, Fab on captured biotin-peptide
Procedure: as §1

Peptide-56 = target: T9, Peptide-56; experiment: ELISA, Fab on captured biotin-peptide
Procedure: as §1

Peptide-51 = target: T10, Peptide-51; experiment: ELISA, Fab on captured biotin-peptide
Procedure: as §1

Peptide-50 = target: T11, Peptide-50; experiment: ELISA, Fab on captured biotin-peptide
Procedure: as §1

Peptide-59 = target: T12, Peptide-59; experiment: ELISA, Fab on captured biotin-peptide
Procedure: as §1

Peptide-45 = target: T13, Peptide-45; experiment: ELISA, Fab on captured biotin-peptide
Procedure: as §1

Peptide-47 = target: T14, Peptide-47; experiment: ELISA, Fab on captured biotin-peptide
Procedure: as §1

Peptide-48 = target: T15, Peptide-48; experiment: ELISA, Fab on captured biotin-peptide
Procedure: as §1

Peptide-3 [2] = target: T16, Peptide-3; experiment: ELISA, Fab on captured biotin-peptide
Procedure: as §1

Peptide-55 = target: T17, Peptide-55; experiment: ELISA, Fab on captured biotin-peptide
Procedure: as §1

Peptide-7 = target: T18, Peptide-7; experiment: ELISA, Fab on captured biotin-peptide
Procedure: as §1

Peptide-8 [3] = target: T3, Peptide-8; experiment: ELISA, Fab on captured biotin-peptide
Procedure: as §1

Peptide-18 = target: T19, Peptide-18; experiment: ELISA, Fab on captured biotin-peptide
Procedure: as §1

Peptide-27 = target: T20, Peptide-27; experiment: ELISA, Fab on captured biotin-peptide
Procedure: as §1

Peptide-12 = target: T21, Peptide-12; experiment: ELISA, Fab on captured biotin-peptide
Procedure: as §1

Peptide-2 = target: T22, Peptide-2; experiment: ELISA, Fab on captured biotin-peptide
Procedure: as §1

Peptide-20 = target: T23, Peptide-20; experiment: ELISA, Fab on captured biotin-peptide
Procedure: as §1

Peptide-1 = target: T24, Peptide-1; experiment: ELISA, Fab on captured biotin-peptide
Procedure: as §1

Peptide-17 = target: T25, Peptide-17; experiment: ELISA, Fab on captured biotin-peptide
Procedure: as §1

Peptide-3 [4] = target: T16, Peptide-3; experiment: ELISA, Fab on captured biotin-peptide
Procedure: as §1

Peptide-26 = target: T26, Peptide-26; experiment: ELISA, Fab on captured biotin-peptide
Procedure: as §1

[5] = target: T27, Human TROP2 ECD (31-274 AA), …; experiment: ELISA, Fab on captured biotin-TROP2
Peptide-28 = target: T28, Peptide-28; experiment: ELISA, Fab on captured biotin-peptide
Procedure: as §1

EC50 (Peptide-49) | EC50 (Peptide-60) | EC50 (Peptide-8 [1]) | EC50 (Peptide-57) | EC50 (Peptide-43) | EC50 (Peptide-54) | EC50 (Peptide-53) | EC50 (Peptide-61) | EC50 (Peptide-56) | EC50 (Peptide-7) | EC50 (Peptide-8 [3]) | EC50 (Peptide-18) | EC50 (Peptide-27) | EC50 (Peptide-12) | EC50 (Peptide-2) | EC50 (Peptide-20) | EC50 (Peptide-1) | EC50 (Peptide-17) | EC50 (Peptide-3 [4]) | EC50 [5] | further results | Binder
296 nM | 47.8 nM | 55.6 nM | 25.7 nM | 28.6 nM | 63.5 nM | 45.3 nM | 191 nM | 52.8 nM | 37.5 nM | 40.2 nM | 474 nM | 23.9 nM | 35.9 nM | 13.7 nM | 600 nM | 22.5 nM | 132 nM | 12.8 nM |  | EC50 (Peptide-51): 45.1 nM; EC50 (Peptide-50): 96.2 nM; EC50 (Peptide-59): 61.1 nM; EC50 (Peptide-45): 50.8 nM; EC50 (Peptide-47): 113 nM; EC50 (Peptide-48): 21.5 nM; EC50 (Peptide-3 [2]): 91.5 nM; EC50 (Peptide-55): 15.7 nM; EC50 (Peptide-26): 85 nM | B1
18.3 nM | 7.7 nM | 12.2 nM | 9.2 nM | 5.3 nM | 30 nM | 4.4 nM | 11.8 nM | 33.3 nM | 59.6 nM | 18.8 nM | 83.2 nM | 178 nM | 18.2 nM | 9.9 nM | 140 nM | 14.8 nM | 16.5 nM | 11.4 nM | 0.3 nM | EC50 (Peptide-51): 13.5 nM; EC50 (Peptide-50): 21.9 nM; EC50 (Peptide-59): 5.4 nM; EC50 (Peptide-45): 32.6 nM; EC50 (Peptide-47): 79.9 nM; EC50 (Peptide-48): 12.2 nM; EC50 (Peptide-3 [2]): 12.5 nM; EC50 (Peptide-55): 6.1 nM; EC50 (Peptide-28): 681 nM | B2
 |  |  |  |  |  |  |  |  | 27.4 nM | 13 nM | 38 nM | 149 nM | 10.1 nM | 12.9 nM | 89 nM | 13.5 nM | 16.4 nM | 12.3 nM | 4.2 nM | EC50 (Peptide-28): 146 nM; EC50 (Peptide-26): 390 nM | B3
 |  |  |  |  |  |  |  |  | 15.6 nM | 8.2 nM | 36.7 nM | 107 nM | 6.8 nM | 5.7 nM | 115 nM | 7.3 nM | 8.5 nM | 6.4 nM | 0.3 nM | EC50 (Peptide-28): 247 nM; EC50 (Peptide-26): 379 nM | B4
130 nM | 60.4 nM | 319 nM | 85.6 nM | 43.6 nM | 147 nM | 32.5 nM | 272 nM | 127 nM | 343 nM | 156 nM | 298 nM |  | 157 nM | 204 nM |  | 292 nM | 191 nM | 246 nM | 3.4 nM | EC50 (Peptide-51): 244 nM; EC50 (Peptide-50): 35.5 nM; EC50 (Peptide-59): 92.8 nM; EC50 (Peptide-45): 138 nM; EC50 (Peptide-47): 304 nM; EC50 (Peptide-48): 42.4 nM; EC50 (Peptide-3 [2]): 296 nM; EC50 (Peptide-55): 36.8 nM | B5
